The results in this text go back to patent USRE46877.

The target in experiment [1] is human CD4 antigen expressed on rat T cell line NB2-6TG (human) (UniProt P01730). As to the kind of experiment: FACS, NB2-6TG cells transfected with human CD4; Experiment 1; control antibody at 10 µg/ml.
The target is the same in experiment [2]. Briefly: FACS, NB2-6TG cells transfected with human CD4; Experiment 1; control antibody at 40 µg/ml.
For experiment [3] the target is unchanged. As to the kind of experiment: FACS, NB2-6TG cells transfected with human CD4; Experiment 1; control antibody at 100 µg/ml.
The target is the same in experiment [4]. As to the kind of experiment: FACS, NB2-6TG cells transfected with human CD4; Experiment 1; control antibody at 2.5 µg/ml.

Consider reshaped CAMPATH-1 antibody, for which the Mean cellular Fluorescence in experiment [1] is 9; in experiment [2], 9.4; in experiment [3], 11.6; in experiment [4] it was 8.6.
